From US20230348892A1

Target: intC-ZF1-NLS-HA
Assay: cell-based or functional assay

With 3xFLAG-NLS-VP64-intN the rec: Reconstitution of split TFs (fitted based on split inteins), model rate constant fitted to reporter data was 0.34 U^-1 h^-1.
